Self-cleavage data for 167 variants are collected here from the RNAGym collection of RNA variant scans (doi:10.7554/elife.80360).

The labels stand for the following.
B1: HDV Ribozyme (parent)
chain: GGCCGGCAUGGUCCCAGCCUCCUCGCUGGCGCCGGCUGGGCAACAUUCCGAGGGGACCGUCCCCUCGGUAAUGGCGAAUGGGACCCA

The data set covers variants of B1. As to the kind of experiment: self-cleavage, relative activity (ratio to wild type); higher = more cleavage; co-transcriptional.
On to C22U C86U, for which the self-cleavage worked out at 0.674.
As for C21A C26U, the figure is 0; as for C21U G59A, 0.154; as for C22U G53A, 0.821.
As for C22U G53U, the figure is 0.61; as for C21U G55A, 0.231; as for C21U G55C, 0.18.
Regarding C22A G55U, the self-cleavage was determined as 0.353.
Regarding C21A G40C, the self-cleavage amounted to 0.111.
The figure for C22U G55C is 0.642; for C22U G67U it is 0.548.
As for C22G G68A, the figure is 0.132; as for U20G C62U, 0.19; as for C22G C49G, 0.0277.
As to C21U G25C, the self-cleavage came out at 0.119.
Turning to C22A A83C, the self-cleavage worked out at 0.147.
As for C22G G54U, the figure is 0.0841; as for C21A A45G, 0.0615; as for C21A A45C, 0.0652.
The figure for C22U G52U is 0.795.
Turning to C21U C62G, the self-cleavage was determined as 0.244.
On to C21A C85U, for which the self-cleavage is 0.157.
As for C21A C85A, the figure is 0.
The figure for C21A C85G is 0; for C21A G74C it is 0.126.
As for C21A G74U, the figure is 0.0712; as for U20G G81C, 0.095.
Turning to U20G G35U, the self-cleavage amounted to 0.
As for U20G G35A, the figure is 0.107; as for C21U G76U, 0.542.
The figure for C21G A42C is 0.166.
As to C21G C64A, the self-cleavage worked out at 0.131.
The figure for C21G C64U is 0.0287; for C21U A71G it is 0.243; for C22A U72C it is 0.
The figure for C21A G39U is 0.945.
As for C22G G52A, the figure is 0.112; as for C22G G52U, 0.0314; as for C22U C48U, 0.727.
As to C21G C36G, the self-cleavage is 0.
Turning to C21G C36A, the self-cleavage was determined as 0.0405.
For C21G C36U, the self-cleavage is 0.0326.
As for C21G G35A, the figure is 0.0817; as for C22A C30A, 0.0405; as for C22A C30U, 0.121.
As for U20G G25A, the figure is 0.
The figure for C21A C75G is 0.0346; for C22G G80A it is 0.135; for C21U U23G it is 0.13.
With C21U U23C, the self-cleavage came out at 0.175.
The figure for C21U C33A is 0; for C21U C33U it is 0.147; for C21U C33G it is 0.104.
As for C21U C63G, the figure is 0.119; as for U20G G74C, 0.0489; as for C22A G29U, 0.128.
As for U20G G82C, the figure is 0.246; as for C22U G73A, 0.192.
Regarding C22A A51C, the self-cleavage turned out to be 0.341.
The figure for C21A A70C is 0.0426; for C21G A70G it is 0.185; for C21G A70C it is 0.225.
As for C22A C57A, the self-cleavage turned out to be 0.208.
In the case of C21A G52A, the self-cleavage amounted to 0.132.
Regarding C22A A87C, the self-cleavage amounted to 0.491.
Regarding U20G U23C, the self-cleavage came to 0.
The figure for U20G U23A is 0; for C22U G74U it is 0.0683.
As for U20G G29U, the figure is 0.
As for U20G G29C, the figure is 0; as for C22U G38U, 0.149.
Take C22G G53U: the self-cleavage was determined as 0.0563.
The figure for C22G A78U is 0.0396; for C21G C57G it is 0.0437.
Regarding C22G G67U, the self-cleavage worked out at 0.0519.
On to C22A C24A, for which the self-cleavage was determined as 0.188.
The figure for C22A C24G is 0.
Take C22A C24U: the self-cleavage amounted to 0.0361.
As for C22G G59A, the figure is 0.124.
The figure for C21A C48A is 0.157; for C21U C32U it is 0.205; for C22A A45G it is 0.225.
As for C21A U69A, the figure is 0.175; as for U20G C84G, 0.119; as for C22A C48G, 0.363.
Turning to C22G G35C, the self-cleavage amounted to 0.0978.
As for C21U G29C, the figure is 0.0773; as for C21U G29A, 0.0683.
As for C22U C44G, the figure is 0.095.
With C21A G67A, the self-cleavage came to 0.0712.
C22U C49G: the self-cleavage is 0.684.
As for C22U C49U, the figure is 0.45; as for C22U C49A, 0.665; as for C22G G25A, 0.0396.
The figure for C21A A42U is 0.208; for C21G U65G it is 0; for C22A C75A it is 0.0308.
As for C22A C75G, the figure is 0.0604; as for C21U U79A, 0.0573.
As to C22G G76A, the self-cleavage came to 0.0354.
As for C22G C41G, the figure is 0.0831.
The figure for C22A C86U is 0.293; for C21G G68U it is 0; for C21U C49U it is 0.245.
As to C21U C49G, the self-cleavage came out at 0.102.
As for C21G U37A, the self-cleavage worked out at 0.119.
Regarding C21G U37C, the self-cleavage came out at 0.0615.
The figure for U20G U37C is 0.237.
The figure for C21A U72A is 0.
As to C21A G53A, the self-cleavage worked out at 0.0791.
As for C21A G28U, the figure is 0.196; as for C22G U60C, 0.0332; as for C21U C85U, 0.511.
As for C21G G38C, the figure is 0.
As for C21A G34C, the figure is 0; as for C21G G54C, 0.0264.
In the case of C21A A83U, the self-cleavage came out at 0.0739.
On to C21G G53C, for which the self-cleavage worked out at 0.0978.
Regarding C21A G59U, the self-cleavage came out at 0.0545.
C21A G59A: the self-cleavage stood at 0.0936.
As for C21A G25C, the figure is 0.
The figure for C21A G25A is 0.116.
The figure for C21G U72C is 0.0426.
For C21U C26G, the self-cleavage came to 0.406.
The figure for C21G U69G is 0.
C22A U60G: the self-cleavage was 0.177.
The figure for C21G U60C is 0.0489; for C22U C63U it is 0.76; for C21A G54C it is 0.0804.
As for C21U C36G, the figure is 0.
The figure for C21G C48U is 0.0707.
For the variant C22A G67C, the self-cleavage turned out to be 0.337.
The figure for C21G C85U is 0; for C21U G28C it is 0.0449; for C22G U72C it is 0.
The figure for C22A G50A is 0.235.
C22A G81C: the self-cleavage was determined as 0.128.
As for C21G G80C, the figure is 0.177.
As for C22U U23C, the figure is 0.68.
C22G A77C: the self-cleavage is 0.0426.
The figure for C22G C85G is 0.0396; for C21G C30A it is 0; for C22G G50C it is 0.
As for C22G G50A, the figure is 0.0504; as for C22G A51U, 0.0339; as for U20G U65G, 0.437.
As for C21G U46C, the figure is 0.104; as for C21G G76C, 0; as for C21G G29U, 0.0733.
In the case of C21A C22U, the self-cleavage was found to be 0.138.
As for C21U A45U, the figure is 0.283; as for C22G U23G, 0.
The figure for C22G U23A is 0.0941.
The figure for C22U C57A is 0.846; for C22U A70C it is 0.656; for C22G G39U it is 0.102.
On to U20G C63G, for which the self-cleavage was 0.104.
The figure for C22A U79G is 0.0573.
As for C22G U27G, the figure is 0.0978; as for C22G U27A, 0.208; as for C21A G55C, 0.13.
As for C21A A43U, the figure is 0.0944; as for C22G A83G, 0.126.
In the case of C21G C63G, the self-cleavage was 0.0378.
Turning to C21G C63U, the self-cleavage was found to be 0.0339.
C21G C63A: the self-cleavage came to 0.106.
The figure for C21G C66U is 0.0475.
